Experimental data taken from US7838495B2, “Compositions and methods of use of EPB1, and ErbB3 binding protein” (University of Maryland, Baltimore, priority 2007, dated 2010).
Entries after “also recorded” stand apart in the source; their conditions may differ.

Columns and labels:
C81 cells = test: Growth of C81 EBP1 transfectants (monolayer, soft agar, androgen-depleted media); type: cell-based, human
Experimental: FIG. 4A-C. EBP1 restoration ameliorates the hormone refractory phenotype A. (Left panel) Growth in monolayer culture. Equal numbers (5×10^4) of vector or EBP1 stably transfected cells were plated at Day 0 in complete media and viable cell numbers determined at the indicated times. Each point represents mean±S.E. of 3 wells. Representative of 3 experiments (Right panel). Colony growth in soft agar. C81 cells stably transfected with either pcDNA or EBP1 were plated in soft agar at the cell densities indicated and colony numbers assessed at Day 10. Each point represents mean±S.E. of 3 dishes. Data is representative of 3 experiments. B. (Left Panel) Response of EBP1 and vector transfected C81 cells to dihydrotestosterone (DHT). EBP1 and vector control C81 transfected cells and early passage LNCaP cells were plated in complete media at 5×10^3 cells/well in 96 well plates for one day. The next day, cells were switched to steroid reduced medium for two days as described in the Materials and Methods. DHT was then added at the indicated concentrations. Cells were refed media every 3 days. Total cell numbers were determined seven days later by MTT assays. Each point represents mean±S.E. of 6 wells. Data is representative of two experiments. (Right Panel) Effect of Bicalutamide on DHT stimulated growth. Cells were plated as described in the Materials and Methods. After 2 days in steroid reduced medium, cells were fed with fresh steroid reduced medium with or without 10 μM bicalutamide (Casodex) in the presence or absence of 10 nM DHT. Total cell numbers were assessed 7 days later by MTT assay. Cells were refed media every 3 days. The data shown are mean±S.E. of six wells. Similar results were found in 2 independent experiments. C. EBP1 expression sensitizes C81 cells to chemotherapeutic drugs. […] Total cell numbers were determined by MTT assays 5 days later. […]
Western Blot Analysis. […] For soft agar growth assays, increasing concentrations of cells (as indicated) were plated in 35 mm Petri dishes in 0.3% agar in complete media and colonies were counted after 10 days of incubation (21). […]

LNCaP cells = test: Cell growth assays of LNCaP EPB1 transfectants (complete media, soft agar); type: cell-based, human
Experimental: Cell Growth Assays: To measure growth in complete media, cells (2×10^4) were seeded in triplicate in individual wells of 12-well tissue culture plates in RPMI-1640 with 10% FBS and cultured for the indicated number of days. Cells were trypsinized, stained with Trypan Blue (0.4%), and counted in a hemacytometer. For soft agar growth assays, increasing concentrations of cells (as indicated) were plated in 35 mm Petri dishes in complete media and 0.3% Difco Bacto Agar over an 0.5% agar layer. Colonies were counted after 10 days of incubation. For studies assessing the effect of dihydrotestosterone (DHT) on cell growth, cells (2×10^4) were plated in 12-well plates in complete media. After a 24-hour attachment period, the medium was replaced with steroid-free medium [phenol red-free RPMI 1640 and 5% charcoal-stripped FBS (Sigma)] for 48 hours. The final concentration of testosterone in the steroid-reduced media was less than 5 pM. After 48 hours of steroid depletion, cells were re-fed with fresh steroid-reduced medium with or without the indicated concentrations of DHT and/or bicalutamide (10 μM), and total cell numbers were assessed 7 days later.

B1: EBP1: ErbB3 binding protein (SEQ ID NO: 2), AR corepressor, here ectopically expressed in cancer cells by stable transfection of an expression plasmid (protein, listed as Homo sapiens)
chain: MSGEDEQQEQTIAEDLVVTKYKMGGDIANRVLRSLVEASSSGVSVLSLCEKGDAMIMEETGKIFKKEKEMKKGIAFPTSISVNNCVCHFSPLKSDQDYILKEGDLVKIDLGVHVDGFIANVAHTFVVDVAQGTQVTGRKADVIKAAHLCAEAALRLVKPGNQNTQVTEAWNKVAHSFNCTPIEGMLSHQLKQHVIDGEKTIIQNPTDQQKKDHEKAEFEVHEVYAVDVLVSSGEGKAKDAGQRTTIYKRDPSKQYGLKMKTSRAFFSEVERRFDAMPFTLRAFEDEKKARMGVVECAKHELLQPFNVLYEKEGEFVAQFKFTVLLMPNGPMRITSGPFEPDLYKSEMEVQDAELKALLQSSASRKTQKKKKKKASKTAENATSGETLEENEAGD
modifications: FLAG tag
- decrease of colony growth in soft agar (C81 cells; C81, highest cell concentration tested): approximately 50%
- growth rate in complete media (C81 cells; C81 EBP1 transfectants vs vector control, p<0.05): significantly decreased
- growth in the absence of androgens relative to vector controls (C81 cells; C81 EBP1 transfectants, androgen depleted media): reduced to one third; also recorded: reduced by ⅔
- growth rate in complete media (LNCaP cells; LNCaP EPB1 transfectants vs vector control, p<0.05): significantly decreased
- doubling time (LNCaP cells; LNCaP EPB1 transfectants, complete media (vector control 48 hours)): 72 h
- decrease of colony growth in soft agar (LNCaP cells; LNCaP, highest cell concentration tested, ten days): approximately 90%
